# B1: CPEB3 Ribozyme (parent)
# chain: UAACAGGGGGCCACAGCAGAAGCGUUCACGUCGCAGCCCCUGUCAGAUUCUGGUGAAUCUGCGAAUUCUGCUGUAUAUCUC
# Variants of: B1
# Assay: self-cleavage, relative activity (ratio to wild type); higher = more cleavage; in vitro, sequencing
# Outline: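 Barcoded CPEB3 ribozyme mutants, produced by rounds of error-prone PCR, self-cleaved while being transcribed with T7 RNA polymerase for 5 hours at 37°C and during a subsequent 15 min DNase I step before EDTA was added. Sequencing of template-switched cDNA on Illumina gave cleaved and total reads, and DNA sequencing assigned barcodes to variants. Each variant's relative activity is its cleaved/total read fraction divided by the unmutated ribozyme's fraction, averaged across three batches. A variant needed a minimum of 5 reads.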
row,Variant,self-cleavage
1,A57G C81G,1.2
2,A57G C81U,1.13
3,C59G U69C,0.2
4,U58C C68A,0.2
5,A57G G73A,1.25
6,A57G G73U,1.15
7,C59U U69C,0.48
8,C59U U69A,0.41
9,C59A U80C,0.38
10,C59A U80G,0.33
11,C59G,0.32
12,C59A,0.37
13,C59U,0.95
14,C59U C62U,0.16
15,A57U U76A,1.01
16,A57U U76C,0.94
17,A57G U80A,1.06
18,A57G U80C,1
19,A57G U80G,1.12
20,A57U C59U,0.21
21,A57G U58C,0.33
22,A57G U58A,0.28
23,A57G U58G,0.22
24,A57G C59A,0.2

row,Variant,self-cleavage
1,A57G C59U,0.83
2,A57G C59G,0.21
3,C59U G73A,1.45
4,U58C A77U,0.65
5,U58C A77C,0.26
6,U58C A77G,0.56
7,C59A U74G,0.74
8,C59A U74C,0.5
9,A57G U76A,1.01
10,A57G U76G,1.08
11,A57G U76C,1.01
12,A57G C71U,0.32
13,U58C C81A,0.75
14,U58C C81U,0.68
15,U58C C81G,0.82
16,C59G U76A,0.47
17,U60A U67G,0.79
18,U60A U67C,0.37
19,U60A U67A,0.42
20,U58C C62G,0.27
21,U58C C62U,0.22
22,U58C C62A,0.36
23,U60A C71U,0.48
24,U60A C71A,0.39

row,Variant,self-cleavage
1,U60A C71G,0.35
2,U58C U66G,0.23
3,U58C U66C,0.28
4,U60C A65U,0.27
5,U60C A65G,0.28
6,U60C A65C,0.17
7,C59U G63A,0.86
8,U58A C59A,0.25
9,U60A U69G,0.25
10,U60A U69C,0.34
11,U60A U69A,0.33
12,C59A U78C,0.38
13,C59A U78A,0.22
14,U58A G63A,0.59
15,U58C U60G,0.24
16,U58C U60A,0.26
17,U58C U60C,0.3
18,U60A A65U,0.21
19,U60A A65G,0.34
20,U60C C81A,0.37
21,U60C C81U,0.74
22,C59A C68A,0.19
23,U58G U72C,0.28
24,U58G U72A,0.24

row,Variant,self-cleavage
1,U58G U72G,0.44
2,A57G U78G,1.12
3,A57G U78A,0.97
4,A57G U78C,0.83
5,U58C U76G,0.69
6,U58C U76C,0.67
7,U58C U76A,0.68
8,U58A A64G,0.32
9,U60C C71U,0.3
10,U60C C71A,0.25
11,U60C U69C,0.37
12,U60C U69G,0.39
13,U60C U69A,0.35
14,U58A U74A,0.6
15,U58A U74C,0.67
16,U60A U78A,0.72
17,U60A U78G,0.38
18,U60A U78C,0.44
19,U60A U80C,0.63
20,U60A U80A,0.59
21,U60A U80G,0.84
22,U58A A65U,0.13
23,U58A A65G,0.17
24,A57U U74A,1.23

row,Variant,self-cleavage
1,A57U U74C,1.03
2,A57G U69C,0.48
3,A57G U69A,0.54
4,A57G U69G,0.72
5,A57U U72C,0.89
6,A57U U72A,0.43
7,C59A A65U,0.05
8,C59A A65G,0.13
9,U58G G63A,0.45
10,C59A U72C,0.34
11,C59A U72A,0.13
12,U60A G70A,0.52
13,A57U U60C,0.27
14,A57U U60A,0.24
15,U60A G63C,0.75
16,U60A G63A,0.61
17,U60A G63U,0.53
18,U60A A64U,0.33
19,U60A A64C,0.13
20,U60A A64G,0.43
21,C59G C71A,0.24
22,U58A C62U,0.23
23,C59A G73U,1.11
24,U60A C68G,0.43

row,Variant,self-cleavage
1,U58G,0.34
2,U58C,0.56
3,U58A,0.41
4,A57G G63A,0.84
5,A57U A65G,0.22
6,C59A A77G,0.31
7,C59G U66C,0.19
8,U60A C81U,0.76
9,U60A C81G,0.93
10,U60C A75C,0.72
11,U60C A75G,0.37
12,U60C A75U,0.57
13,A57G A65U,0.32
14,A57U A75G,0.69
15,A57U A75U,1.08
16,C59U U60A,0.28
17,C59U U60C,0.34
18,C59U A64U,0.25
19,C59A A75G,0.16
20,C59A A75U,0.13
21,U60C U66A,0.33
22,U60C U66G,0.15
23,U60C U66C,0.29
24,U58A U76A,0.49

row,Variant,self-cleavage
1,U58A U60A,0.17
2,U58A U60C,0.23
3,U58A U60G,0.17
4,U60C G63U,0.58
5,U60C G63A,0.57
6,U60C G63C,0.54
7,A57G U67C,0.35
8,A57G U67A,0.45
9,A57G U67G,0.38
10,A57U U69C,0.3
11,A57U U69A,0.4
12,A57U U69G,0.44
13,U58A U67C,0.31
14,U58A U67A,0.32
15,A57G C79U,1.1
16,A57G C79A,0.73
17,C59U U67A,0.28
18,C59U U67C,0.21
19,U58C U78C,0.47
20,U58C U78A,0.47
21,U58C U78G,0.44
22,C59A U67A,0.26
23,C59A U67C,0.16
24,U60C G61U,0.26

row,Variant,self-cleavage
1,U60C G61C,0.29
2,U60A C79U,0.69
3,U60A C79A,0.88
4,A57U U67C,0.22
5,A57U U67A,0.38
6,A57U A77G,0.76
7,A57U A77U,1.01
8,U58A C68U,0.23
9,C59G A75U,0.28
10,U58A U66C,0.29
11,U60A A77G,0.56
12,U60A A77U,0.52
13,U58A A75G,0.46
14,U58A A75U,0.29
15,A57U U66C,0.33
16,U58A G73A,1.1
17,U58C G70A,0.37
18,U60C C79G,0.81
19,U60C C79A,0.93
20,U60C C79U,0.72
21,U58C U69A,0.3
22,U58C U69C,0.27
23,U58C U69G,0.15
24,C59U U76C,0.97

row,Variant,self-cleavage
1,C59A U76A,0.43
2,C59A U76G,0.33
3,U60C C62U,0.33
4,U60C C62A,0.19
5,U58C G61U,0.21
6,U58C C71U,0.41
7,U58C C71A,0.37
8,C59G U78C,0.27
9,C59G U74A,0.37
10,U58A U72A,0.38
11,U58A U72G,0.42
12,U58A U72C,0.43
13,C59U U74A,1.6
14,C59U U74C,1.1
15,U58C U72G,0.55
16,U58C U72C,0.59
17,U58C U72A,0.39
18,U58G U76A,0.51
19,U58G U60C,0.3
20,U58G U60A,0.18
21,U58C A64U,0.33
22,U58C A64G,0.36
23,A57U U78C,0.68
24,A57U U78A,1.21

row,Variant,self-cleavage
1,A57U U78G,0.75
2,U60C A64G,0.36
3,U60C A64C,0.61
4,U60C A64U,0.31
5,U60A U66C,0.34
6,U60A U66A,0.18
7,U60A U76A,0.61
8,U60A U76C,0.56
9,U58C A75U,0.7
10,U58C A75G,0.46
11,U58C G73A,1.24
12,C59U A75G,0.81
13,U58C A65G,0.27
14,U58C A65U,0.21
15,U58C A65C,0.14
16,U58G U80C,0.27
17,U60A G61C,0.22
18,U60A G61U,0.38
19,U58G U66C,0.27
20,A57U A64G,0.75
21,A57U A64U,0.21
22,C59A U69C,0.23
23,C59A U69A,0.18
24,U58A U69C,0.28

row,Variant,self-cleavage
1,U58A U69A,0.23
2,U60C A77U,0.55
3,U60C A77G,0.51
4,C59A G70U,0.13
5,C59A U60A,0.31
6,C59A U60C,0.19
7,U60A A75U,0.62
8,U60A A75G,0.46
9,U58C U80C,0.57
10,U58C U80G,0.67
11,U58C U80A,0.91
12,A57G U72G,1.01
13,A57G U72C,1.05
14,A57G U72A,0.62
15,A57U U80C,0.92
16,A57U U80A,0.55
17,U58G U78A,0.4
18,U58G U78C,0.34
19,C59U A77G,0.94
20,U58A G70C,0.14
21,A57G G61U,0.64
22,A57G G61A,0.59
23,U60A,0.57
24,U60C,0.54

row,Variant,self-cleavage
1,A57U G70A,0.38
2,A57U G70U,0.19
3,C59A A64G,0.2
4,U58A U78C,0.42
5,U58G A65G,0.1
6,A57G U60A,0.4
7,A57G U60C,0.42
8,A57G U60G,0.26
9,U58C U74C,0.87
10,U58G U74A,0.31
11,A57G C62U,0.33
12,C59G U60C,0.16
13,U58G G70A,0.19
14,U60A U74C,1.04
15,U60A U74A,0.75
16,U60A U74G,0.91
17,U58C G63A,0.51
18,U58C G63U,0.91
19,U58C G63C,0.54
20,A57G C68U,0.77
21,A57G C68G,0.4
22,A57G A77U,0.9
23,A57G A77G,0.87
24,A57G U66G,0.53

row,Variant,self-cleavage
1,A57G U66C,0.4
2,A57G U66A,0.37
3,U58C C79U,0.6
4,U58G U69C,0.2
5,U60A U72A,0.54
6,U60A U72C,0.64
7,U60A U72G,0.61
8,U58A U80A,0.5
9,U58A U80C,0.46
10,A57U U58A,0.3
11,A57U U58C,0.18
12,A57U U58G,0.1
13,A57U,0.8
14,U58G A64U,0.17
15,A57G U74G,1.23
16,A57G U74C,1.15
17,A57G U74A,1.2
18,U60A G73A,1.16
19,A57U C79G,1.16
20,U60C G73A,1.09
21,U60C G73C,0.9
22,U60C C68A,0.32
23,U60C C68G,0.31
24,U60A C62U,0.26

row,Variant,self-cleavage
1,U60C U67C,0.35
2,U60C U67A,0.3
3,U60C U67G,0.2
4,U58C C59U,0.21
5,U60C G70C,0.27
6,U60C G70A,0.48
7,U60C G70U,0.44
8,C59U A65G,0.4
9,U58A A77G,0.38
10,U58A A77C,0.33
11,U58A A77U,0.43
12,A57U C62U,0.21
13,A57G A75G,0.74
14,A57G A75U,1.01
15,C59U U78C,0.94
16,C59U U78A,1.17
17,A57G G70A,0.49
18,A57G G70C,0.22
19,C59U U72C,1.14
20,C59U U72A,0.4
21,U58C U67A,0.28
22,U58C U67C,0.29

# — the RNAGym collection of RNA variant scans (doi:10.1093/nar/gkz1192)
